Measured values taken from paper PMC7335187, “Super-assembly of ER-phagy receptor Atg40 induces local ER remodeling at contacts with forming autophagosomal membranes” (Nature Communications, 2020).
Blank lines part the entries; values can stand above or below the substance they belong to.

Tests used:
[1] = molecular target: LC3B WT (rat LC3B 1-120) (rat) (UniProt Q62625); assay: ITC; peptide in the syringe (0.5 mM) titrated into 200 µl of the Atg8 homologue in the cell at a 10 times lower concentration; MicroCal iTC200, 25 °C, stirring at 1000 rpm; single-site binding model; N fixed to 1.0 when the fitting was not convergent due to weak interaction; errors are fitting errors
[2] = molecular target: Atg8 (1-116) K26P (S. cerevisiae) (UniProt P38182); assay: ITC; MicroCal iTC200, 25 °C; peptide in the syringe (FAM134B, SEC62, RTN3 0.5 mM; Atg40^234–252 2.0 mM; Atg40^237–252 1.8 mM), Atg8-family protein in the cell at 10 times lower concentration (1.8 mM Atg8 for Atg40^237–252 D243A D247A); 20 mM HEPES pH 6.8, 150 mM NaCl; single-site model; errors are fitting errors
[3] = molecular target: GABARAP WT (human GABARAP 1-116) (human) (UniProt O95166); assay: ITC; peptide in the syringe (0.5 mM) titrated into 200 µl of the Atg8 homologue in the cell at a 10 times lower concentration; MicroCal iTC200, 25 °C, stirring at 1000 rpm; single-site binding model; N fixed to 1.0 when the fitting was not convergent due to weak interaction; errors are fitting errors
LC3A WT = LC3A WT (UniProt Q9H492); assay: as above
GABARAPL2 WT = GABARAPL2 WT (UniProt P60520); assay: as above
GABARAPL1 WT = GABARAPL1 WT (UniProt Q9H0R8); assay: as above
LC3C WT = LC3C WT (UniProt Q9BXW4); assay: as above
LC3C WT, sequence (Q9BXW4 1-126): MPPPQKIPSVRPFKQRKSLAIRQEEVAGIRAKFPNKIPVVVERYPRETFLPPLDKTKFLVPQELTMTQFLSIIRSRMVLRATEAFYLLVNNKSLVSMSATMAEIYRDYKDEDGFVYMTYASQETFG

GABARAP WT (human GABARAP 1-116) (human), sequence (O95166 1-116): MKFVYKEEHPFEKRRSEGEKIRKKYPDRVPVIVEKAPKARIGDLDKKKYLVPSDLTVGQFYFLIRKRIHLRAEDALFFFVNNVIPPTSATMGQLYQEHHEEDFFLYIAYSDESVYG
GABARAPL2 WT, sequence (P60520 whole entry): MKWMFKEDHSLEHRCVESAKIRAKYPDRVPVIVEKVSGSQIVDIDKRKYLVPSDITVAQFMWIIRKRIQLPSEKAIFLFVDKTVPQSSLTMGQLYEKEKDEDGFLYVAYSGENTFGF
GABARAPL1 WT, sequence (Q9H0R8 whole entry): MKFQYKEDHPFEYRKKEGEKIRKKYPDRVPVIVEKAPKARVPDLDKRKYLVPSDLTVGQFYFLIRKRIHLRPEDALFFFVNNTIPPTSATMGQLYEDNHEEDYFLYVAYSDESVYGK
Atg8 (1-116) K26P (S. cerevisiae), sequence (P38182 1-116 K26P): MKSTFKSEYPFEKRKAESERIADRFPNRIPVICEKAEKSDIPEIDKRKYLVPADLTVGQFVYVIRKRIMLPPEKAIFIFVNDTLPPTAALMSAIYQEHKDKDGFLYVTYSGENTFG

- Kd [1]: 8.2 µM
- stoichiometry N [1]: 1.28 site
Substance: FAM134B444-470 E456A E462A peptide

- Kd [2]: 0.57 µM
Substance: Atg40^237–252 peptide (from UniProt Q99325 237-252)

- Kd [3]: 2.06 µM
- stoichiometry N [3]: 0.99 site
Substance: FAM134B444-470 L458A peptide

- Kd (LC3A WT): 0.21 µM
- stoichiometry N (LC3A WT): 0.7 site
- Kd [1]: 0.62 µM
- stoichiometry N [1]: 1.08 site
- Kd (GABARAPL2 WT): 0.3 µM
- stoichiometry N (GABARAPL2 WT): 0.89 site
- Kd (GABARAPL1 WT): 0.12 µM
- stoichiometry N (GABARAPL1 WT): 0.97 site
- Kd (LC3C WT): 1.11 µM
- stoichiometry N (LC3C WT): 0.74 site
Substance: FAM134B444-470 WT peptide
